According to the supplement of paper PMC10201428:
± gives the standard deviation of the averaged measurements.

The sequences below were run on VchCAST RNA-guided transposition machinery (E. coli BL21(DE3) host, lacZ target) (assay: relative integration efficiency (T-LR orientation) vs wild-type transposon end (log2 (normalized fold change)); transposon end mutated: right end (5 bp flank + 75 bp right end); higher = more efficient transposition).
Summary of the method: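 Barcoded pools of 1549 left-end or 1849 right-end transposon variants were cloned into a pUC57 mini-transposon donor. Each pool was co-transformed with a T7-driven effector plasmid (CRISPR array, tniQ-cas8-cas7-cas6, tnsA-tnsB-tnsC) into E. coli BL21(DE3) and plated with 0.1 mM IPTG at 37°C for 18 h. Input plasmids and genomic integration junctions were PCR-amplified and Illumina-sequenced, with two biological output replicates and four wild-type barcodes as reference. Relative integration efficiency is output/input barcode abundance fold change, normalised to wild-type barcodes and log-transformed.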

Sequence | relative integration efficiency (log2)
ACATTTGTTGATACAACCATAAAATGATAATTACACCCATAAATTGATAATTATCACACCCATAAATTGATATTGCCTCTGATCAATATGTAACCAAAAGTAAAATAGTCAGACCAAGCACCGACAC | 0.023 ± 0.042
ACATTTGTGTATACAACCATAAAATGATAATTACACCCATAAATTGATAATTATCACACCCATAAATTGATATTGCCTCTGATCATAGTCAGACCAACATTGCTACGACCCGTATTCGCACCGACAC | -0.811 ± 0.61
ACATTTGTTGATACAACCATAAAGTGATATTTACAACCATAAGTTGATATTTTTCACAACCATAAGTTGATATTTTCTCTGATCATAGTCAGACCAACATTGCTACGACCCGTATTCGCACCGACAC | 0.284 ± 0.16
ACATTTGTTGATACAACCATAAAATGATAATTAATAATTATTTACACCCATAAATTGATAATTATCACACCCATAAATTGATATTGCCTCTGATCATAGTCAGACCAACATTGCTACGACCCGTATT | -4.57 ± 0.14
ACATTTGTTGATACAACCATATATTGATATCTCCAACCATAAAATGATAATTATCACACCCATAAATTGATATTGCCTCTGATCATAGTCAGACCAACATTGCTACGACCCGTATTCGCACCGACAC | -0.381 ± 0.023
ACATTTGTTGATACAACCATAAAATGATAATTACCACCATAAATTGATAATTATCACACCCATAAATTGATATTGCCTCTGATCATAGTCAGACCAACATTGCTACGACCCGTATTCGCACCGACAC | -0.372 ± 0.27
ACATTTGTTCATCCAACCATAAAATGATAATTACACCCATAAATTGATCATTATCACACCCAATTTAACTATAACGCTCTGATCATAGTCAGACCAACATTGCTACGACCCGTATTCGCACCGACAC | 0.101 ± 0.12
ACATTTGTTGATACAACCATAAAATCATAATTACACCCATCAATTGATAATTATCCCACCCCATTTAACTATAACGCTCTGATCATAGTCAGACCAACATTGCTACGACCCGTATTCGCACCGACAC | -0.633 ± 0.39
ACATTTGTGGATACAACCATAAAATGATAATTACCACCCATAAATTGATAATTATCACACCCATTTAACTATAACGCTCTGATCATAGTCAGACCAACATTGCTACGACCCGTATTCGCACCGACAC | 1.54 ± 0.083
ACATTTGTTGATACAACCATAAAATGATAATTACAACCATAAAGTGATATTTATCACAACCATAAAATGATAATTACTCTGATCATAGTCAGACCAACATTGCTACGACCCGTATTCGCACCGACAC | -0.0691 ± 0.38
ACATTTGTTGATACAACCATAAAATGATAATTACACCCATAAATTGATAATTATCAACAAACGCCCGGTCGCGGTACTCTGATCATAGTCAGACCAACATTGCTACGACCCGTATTCGCACCGACAC | 2.66 ± 0.038
ACATTTGTTGATACAACCATAAAATGATAATTACACCCATAAATTGATAATTATCACACCCATAAATTGATATTGCTTATGATCATAGTCAGACCAACATTGCTACGACCCGTATTCGCACCGACAC | -0.462 ± 0.31
ACATTTGTTGATACAACCATAAAATGATAATTACACCCATTAATTGATAATGATGACACCGAATTTAACTATAACGCTCTGATCATAGTCAGACCAACATTGCTACGACCCGTATTCGCACCGACAC | 2.15 ± 0.056
ACATTTGTTGATACAACCATAAAATCATAATTACACCCATCAATTGATAATTATCCCACCCAATTTAACTATAACGCTCTGATCATAGTCAGACCAACATTGCTACGACCCGTATTCGCACCGACAC | -0.195 ± 0.066
ACATTTGTTGTATGAACCATAAAATGATAATTACACCCATAAATTGATAATTATCACACCCATAAATTGATATTGCCTCTGATCATAGTCAGACCAACATTGCTACGACCCGTATTCGCACCGACAC | -2.29 ± 0.23
ACATTTGTTCTATCAACCATAAAATGATAATTACACCCATAAATTGATAATTATCACACCCATAAATTGATATTGCCTCTGATCATAGTCAGACCAACATTGCTACGACCCGTATTCGCACCGACAC | -4.42 ± 0.25

Sequence | relative integration efficiency (log2)
ACATTTGTCGATACAACCATAAAATGATAATTACACCCATAAATTCATAATTATCACACCCAATTTAACTATAACGCTCTGATCATAGTCAGACCAACATTGCTACGACCCGTATTCGCACCGACAC | 1.2 ± 0.05
ACATTTGTTGATACAACCATATATTGATATCTCCAACCATAAGTTGATATTTTTCACAACCATAAAGTGATATTTACTCTGATCATAGTCAGACCAACATTGCTACGACCCGTATTCGCACCGACAC | -0.0291 ± 0.26
ACATTTGTGGATACAACCCTAAAATGATAATTACACCCATAAATTCATAATTATCACCCCCAATTTAACTATAACGCTCTGATCATAGTCAGACCAACATTGCTACGACCCGTATTCGCACCGACAC | -2.64 ± 0.13
ACATTTGTTGATACAACCATAAAATGATAATTACACCCAGCAATTGATAATTATCACACCCATAAATTGATATTGCCTCTGATCATAGTCAGACCAACATTGCTACGACCCGTATTCGCACCGACAC | -2.55 ± 0.22
ACATTTGTTGATACACCCATAAATTGATATTGCCAACCATAAGTTGATATTTTTCACACCCATAAATTGATATTGCCTCTGATCATAGTCAGACCAACATTGCTACGACCCGTATTCGCACCGACAC | -0.37 ± 0.1
ACATTTGTTGATACCACCATAAAATGGTAATTCCACCCATAAATTGATAATTATCACACCCAATTTAACTATAACGCTCTGATCATAGTCAGACCAACATTGCTACGACCCGTATTCGCACCGACAC | 2.06 ± 0.076
ACATTTGTTGATACAACCATAAAATGATAATTACACCCATAAATTGATAATTATCAGTCCCATAAATTGATATTGCCTCTGATCATAGTCAGACCAACATTGCTACGACCCGTATTCGCACCGACAC | 1.51 ± 0.031
ACATTTGTTGATACAACCATAAAATGATCCGGCACAAACGCCCGGTCGCCGGCGACACAAACGCCCGGTCGCGGTAAGAGGATCATAGTCAGACCAACATTGCTACGACCCGTATTCGCACCGACAC | 0.37 ± 0.064
ACATTTGTTGATACAACCATAAAATGATAATTACCAAAATAAATTGATAATTATCACACCCATAAATTGATATTGCCTCTGATCATAGTCAGACCAACATTGCTACGACCCGTATTCGCACCGACAC | -1.47 ± 0.039
ACATTTGTTGATACAACCATAAAAGGATAATTACACCCATAAATTGATAATTATCCCACCCCATTTAACTATAACGCTCTGATCATAGTCAGACCAACATTGCTACGACCCGTATTCGCACCGACAC | 2.28 ± 0.097
ACATTTGTTGATACAACCATAAAATGATAATTACAACCATAAGTTGATATTTTTCACAACCATAAAATGATAATTACTCTGATCATAGTCAGACCAACATTGCTACGACCCGTATTCGCACCGACAC | -0.0321 ± 0.022
ACATTTGTTCATACAACCATAAAATGATAATTACACCCATAAATTGATCATTATCACCCCCAATTTAACTATAACGCTCTGATCATAGTCAGACCAACATTGCTACGACCCGTATTCGCACCGACAC | 0.514 ± 0.2
ACATTTGTTGATACAACCATAAAATGATAATTACACCCATAAATTGATAATTATCACACCCATAAATTGATATTGCCTCTGATAGTACTGCGCGCCTGAATTCATCGTTAAATCGTCGCACCGACAC | 0.249 ± 0.17
ACATTTGTTGATACAACCATAAAGTGATATTTACAACCATATATTGATATCTCTCACAACCATAAAATGATAATTACTCTGATCATAGTCAGACCAACATTGCTACGACCCGTATTCGCACCGACAC | -0.162 ± 0.091
ACATTAGTCGATACAACCATAAAATGATAATTACACCCATAAATTCATCATTATCACACCCAATTTAACTATAACGCTCTGATCATAGTCAGACCAACATTGCTACGACCCGTATTCGCACCGACAC | -6.06 ± 1.4
ACATTTGTGGATCCAACCATAAAATGATAATTACACCCATAAATTCATCATTATCACACCCAATTTAACTATAACGCTCTGATCATAGTCAGACCAACATTGCTACGACCCGTATTCGCACCGACAC | 1.15 ± 0.38
